Each block holds one binder with its values, some of them ahead of it.
Key:
human CD33 protein = molecular target: T1, human CD33 protein (human, UniProt P20138 18-259); assay: SPR (BIACORE T200), antibody fragment captured by affinity tag, 100 nM human CD33 flowed over, estimate from one concentration; column KD; no unit printed on the sheet
T1 construct: extracellular domain; It is not tied to the protein used in the screen, so it is not used here; also called recombinant human CD33 protein; CD33 ECD proteins
T1 sequence (P20138 18-259): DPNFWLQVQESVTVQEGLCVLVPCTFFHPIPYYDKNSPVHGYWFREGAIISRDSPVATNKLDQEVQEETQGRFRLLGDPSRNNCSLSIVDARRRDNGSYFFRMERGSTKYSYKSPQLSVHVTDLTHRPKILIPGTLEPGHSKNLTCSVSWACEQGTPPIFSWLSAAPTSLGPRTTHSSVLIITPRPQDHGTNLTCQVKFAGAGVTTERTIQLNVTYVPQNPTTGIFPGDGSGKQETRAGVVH
Description: The scFv proteins in the supernatant were analyzed for their ability to bind to CD33 ECD proteins by ELISA and CD33-overexpressing MV4-11 cell lines by FACS. All binders were sequenced and some were subjected to for further characterization including affinity ranking by surface plasmon resonance (SPR) on a BIACORE® T200 instrument. The experiments were carried out as follows: the crude […] proteins were captured through an affinity tag onto the sensorchip. High-concentration (100 nM) of human CD33 flowed over the sensorchip surface, and was allowed to bind the antibody fragments. On-rate (kon) and off-rate (koff) were roughly calculated based on the association and dissociation of one antigen concentration, and were used to estimate the equilibrium dissociation constant (KD).

Human CD33 C2 domain = molecular target: T2, Human CD33 C2 domain (human, UniProt P20138); assay: +/- column 'Human CD33 C2 domain' of the drawn table; legend: cell binding properties; assay not named on the sheet
T2 construct: C2 domain only; also called C2-set Ig-like domain of human CD33
T2 sequence (P20138 145-228 limits assumed): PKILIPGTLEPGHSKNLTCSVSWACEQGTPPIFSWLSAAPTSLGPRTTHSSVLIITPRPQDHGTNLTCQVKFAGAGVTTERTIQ

B1: AS187809 (scFv)
scFv (VL-linker-VH): EIVMTQSPSSVTASAGEKVTINCKSSQSVLYSSNQKSYLAWYQQRPGQSPRLLIYYASTRESGVPDRFSGSGSTTDFTLTISSVQPEDAAVYYCQQGYSAPVTFGQGTKLELKGGGGSGGGGSGGGGSQVQLQESGGGLVQPGGSLRLSCAASGFTFSRYYMSWVRQAPGKGLEWVSSIYSDGSNTYYTDSVKGRFTISRDNAKNTVYLQMNSLKSEDTAQYYCATDRDCSGIHCGAFGYWGQGTQVTVSS
notes: Format as for f1; also called anti-CD33 IgG1 AS187809; AS187809 scFv
Kd (human CD33 protein): 1.08 nM

B2: AS141962 (scFv)
scFv (VL-linker-VH): QAVLTQPSSVSGTPGQTVTISCAGTSSDVGSTNYVSWYRQLPGTAPKLLIYQVNYRASGIADRFSGSKSGNTASLTISGLQSADEADYYCASRSGNNFVFGGGTHLTVLGGGGSGGGGSGGGGSEVQLVESGGGLVQPGGSLRLSCAASGFTFSDFSIFWVRQAPGKGLEWVSSINFGGDRTYYADSVKGRFTISRNNAENTVYLQMNSLKAEDTAAYHCVTTAVALADCSGGCYTPGAFNAWGQGTLVTISS
notes: Format as for f1; also called anti-CD33 IgG1 AS141962; AS141962 scFv
binding result (Human CD33 C2 domain): no binding (tested: not given) | Kd (human CD33 protein): 3.06 nM

B4: AS141837 (scFv)
scFv (VL-linker-VH): SSELTQPSAVSVSLGETARITCQGVNVGSYYASWYQQKPGQAPVLVIYGNSNRPSGIPERFSGSKSGGTATLTISGAQAEDEADYYCQSADSSAFNAVFGGGTHLTVLGGGGSGGGGSGGGGSQVQLVQSGGGLVQPGGSLRLSCAASGFTFSSYDMTWVRQAPGKGLEWVSAVNSGGGTTYYADSVKGRFTISRDNAKNTLYLQMNSLKTEDTAVYYCATAIEREEDPLWVGPEYNTWGQGTQVTVSS
notes: Format as for f1; also called anti-CD33 IgG1 AS141837; AS141837 scFv
binding result (Human CD33 C2 domain): no binding (tested: not given) | Kd (human CD33 protein): 21.4 nM

B5: AS199911 (scFv)
scFv (VL-linker-VH): SYELTQPSALSVTLGQSAKITCQGDNFETTYVHWYQQKPGQAPVLVIYNDDSRPSGIPERFSGSNSGDRATLTISGAQAEDEGDYYCQSADTSGNAYVFGGGTHLTVLGGGGSGGGGSGGGGSAVQLVESGGGLVQPGGSLRLSCAASGFTFSRSDMSWVRQAPGKGLEWVSYINSGGGTNRYADSVKARFTIFRDNAKNTLYLQMNTLKPEDTAVYYCAKSGFDSDWIFGYLERWGQGTLVTVSS
notes: Format as for f1; also called anti-CD33 IgG1 AS199911; AS199911 scFv
Kd (human CD33 protein): 0.35 nM

B6: AS141974 (scFv)
scFv (VL-linker-VH): NFMLTQPAAVSVSLGETARITCQGGNFGSYYASWYQQKPGQAPVLVIYANSNRPSGIPERFSGSSSGGTATLTISGAQAEDEADYYCQSYDSSAAVFGGGTHLTVLGGGGSGGGGSGGGGSQVQLQESGGGLVQPGGSLRLSCAASGFTFSSYAMSWVRQAPGKGLEWVSAINSGGGSTYYADSVKGRFTISRDNAKNTLYLQLNSLKTEDTAMYYCAKEGGLYYSDYDELYFGYWGQGTQVTVSS
notes: Format as for f1; also called anti-CD33 IgG1 AS141974; AS141974 scFv
binding result (Human CD33 C2 domain): no binding (tested: not given) | Kd (human CD33 protein): 1.79 nM

B10: AS142096 (scFv)
scFv (VL-linker-VH): NFMLTQPSAVSVSLGETARITCQGGKVGSNYASWYQQKPGQAPVLVIYGDDSRPSGIPERFSGSSSGGTATLTISGAQAEDEADYYCQSYDSSGYNAVFGGGTHLTVLGGGGSGGGGSGGGGSQVQLVESGGGLVQPGGSLRLSCAASGFTFFSYYMSWVRQAPGKGLEWVSSIYSDGSNTYYADSVKGRFTISRDNAKNTVYLQMNSLKSEDTALYYCATAGYYSDYVEFEYWGQGILVTVSS
notes: Format as for f1; also called anti-CD33 IgG1 AS142096; AS142096 scFv
binding result (Human CD33 C2 domain): no binding (tested: not given) | Kd (human CD33 protein): 0.27 nM

B11: AS138521 (scFv)
scFv (VL-linker-VH): SSELTQPAAVSVSLGETARITCQGGNFGSYYATWYQQKPGQAPVLVIYANSNRPSGIPERFSGSSSGGTATLTISGAQAEDEADYYCQSYDNSANAVFGGGTHLTVLGGGGSGGGGSGGGGSEVQLVESGGGLVQPGGSLRLSCAASGSTFWSYYMSWVRQAPGKGLEWVSSIYSDGSYAYYADSVKGRFTISRDNAKNTVYLQMNSLKSEDTALYYCATAPTPDGGSWLWYNYWGQGTQVTVSS
notes: Format as for f1; also called anti-CD33 IgG1 AS138521; AS138521 scFv
binding result (Human CD33 C2 domain): no binding (tested: not given) | Kd (human CD33 protein): 0.364 nM

B12: AS142077 (scFv)
scFv (VL-linker-VH): SYELTQPSAMSVSLGETTRITCQGGNIESSYASWYQQKPGQAPALVIYEDSERPSRIPERFSGSSSGGTATLTISGAQAEDEADYYCQSADSSGYNPVFGGGTHLTVLGGGGSGGGGSGGGGSQVQLVESGGGLVQPGGSLRLSCAASGFTFSSYAMSWVRQAPGKGLEWVSGINSGGGSTYYADSVKGRFTISRDNAKNTLYLQLNSLKTEDTAMYYCAKHLLIIYSDYDVRGSEALDAWGQGTLVTVSS
notes: Format as for f1; also called anti-CD33 IgG1 AS142077; AS142077 scFv
binding result (Human CD33 C2 domain): no binding (tested: not given) | Kd (human CD33 protein): 0.348 nM

B13: AS141869 (scFv)
scFv (VL-linker-VH): NFMLTQPSAVSVSLGETARITCQGGNVGTSYASWYQQKPGQAPVLVIYGNSNRPSGIPERFSGSKSGGTATLTISGAQAEDEADYYCQSADSRGYVAFGGGTHLTVLGGGGSGGGGSGGGGSQVQLQESGGGLVQPGGSLRLSCAASGFTFSSYDITWVRQAPGKGLEWVSAINSGGNSTYYADSVKGRFTISRDNAKNTLYLQMNSLKTEDTAVYYCATAIEREEDPLWVGPEYNYWGQGTQVTVSS
notes: The legend calls it anti-CD33 IgG1; also called anti-CD33 IgG1 AS141869; AS141869 scFv
binding result (Human CD33 C2 domain): no binding (tested: not given) | Kd (human CD33 protein): 11.5 nM

B14: AS199757 (scFv)
scFv (VL-linker-VH): NFMLTQPPSVSGSPGQKFTISCTGSSNNIGDNYVNWYQHLPGTAPKLLIYSNNNRASGVPDRFSGSKSGSSASLTITGLQAEDEADYYCSSWDDSLSGFVFGGGTHLTVLGGGGSGGGGSGGGGSAVQLVESGGGLVQPGGSLRLTCAASGFTFDNYGMSWVRQAPGKGLEWVSAIMWNGGTTYYAEPMKGRFTISRDNAKNTVYLQMNSLKSEDTAVYYCARHGSSWYAMDYWGQGTQVTVSS
notes: Format as for f1; also called anti-CD33 IgG1 AS199757; AS199757 scFv
Kd (human CD33 protein): 1.5 nM

The next binders have a lower Kd (human CD33 protein) than those just listed; values first:

Kd (human CD33 protein): 0.24 nM
B3: AS200728C (scFv)
scFv (VL-linker-VH): QAVVTQLSSMSGSPGQTVTITCTGSSSNIGGGYYLSWYQQLPGTAPKLLIYNVNNRASGVPNRFSGSKTGSLASLTITGLQAEDEADYYCGSYDESLSYVFGGGTHLTVLGGGGSGGGGSGGGGSQVQLVESGGGLVQPGGSLRVSCAASGFTFKNYYMGWVRQAPGKGLEWISGINSGGEVTTYADSVKDRFTISRDNAKNTLYLQMNSLKPDDTALYYCAGGEGSSWYPDYYYGNGYWGEGTLITVSS
notes: Format as for f1; also called anti-CD33 IgG1 AS200728C; AS200728C scFv

Kd (human CD33 protein): 0.067 nM
B8: AS199772 (scFv)
scFv (VL-linker-VH): SYELTQSPSVSVALRQAAKITCRGDNIETKYAYWYQQKPGQSPLLVIYKDDNRPSGIPERFSGSNSGNMATLTISGAQAEDEADYYCQVWDSSANWVFGGGTHLTVLGGGGSGGGGSGGGGSQVQLQESGGGLVQPGGSLRLSCAASGFTFSSYWMYWVRQAPGKGLEWVSAMNTGGGSTYYGDSVKGRFTVSRDNAKNTLALQMNSLKPEDTALYYCARSWGGMYSGGYYEYSGMDYWGKGTLVTVSS
notes: Format as for f1; also called anti-CD33 IgG1 AS199772; AS199772 scFv

Kd (human CD33 protein): 0.064 nM
B9: AS188893 (scFv)
scFv (VL-linker-VH): SYELTQPSAVSVSLGQTARITCQGGNLGTSYVHWYQQKPGQAPVLVIYGDDSRPSGIPERFSGSSSGGTATLTISGAQAEDEADYYCQSYDSSSSVFGGGTHLTVLGGGGSGGGGSGGGGSQVQLQESGGGLVQPGGSLRLSCAASGFTFSNNWMYWVRQAPGKGLEWVSSIATGDGSTNSADSVKGRFTISRDNTKNMLYLQMNSLKSEDTALYYCAKGVNIDHDVGAGDYWGQGTQVTVSS
notes: Format as for f1; also called anti-CD33 IgG1 AS188893; AS188893 scFv

binding result (Human CD33 C2 domain): no binding (tested: not given) | Kd (human CD33 protein): 0.0624 nM
B7: AS141996 (scFv)
scFv (VL-linker-VH): SSELTQPSAVSVSLGETARITCQGGNVGSSYASWYQQKPGQAPVLVIYEDSERPSGIAERFSGSSSGGTATLTISGAQAEDEADYYCQSADNNGAVFGGGTHLTVLGGGGSGGGGSGGGGSEVQVVESGGGLVQPGGSLRLSCAGSGFTFSSYAMSWVRQAPGKGLEWVSTINSGGGSTYYADSVKGRFTISRDNAKNTLYLQLNSLKTEDTAMYYCANHLLIIYSDYDVRGSEAWETWGQGTLVTVSS
notes: Format as for f1; also called anti-CD33 IgG1 AS141996; AS141996 scFv

— US20250082754A1 (NANJING LEGEND BIOTECH, published 2025)
